Assay results from paper PMC3380823.

Assays:
[1] = target: CrPLC C7A mutant (Chlamydomonas reinhardtii); test: SEC; HiLoad 16/60 Superdex 200 prep grade and Superose 12 10/300 GL analytical columns, PBS, 1 ml/min, 4°C, no reducing agent; calibrated with molecular weight standards; 5 to 50 µM on the analytical column; monomer and dimer fractions reloaded
[2] = target: recombinant phospholipase C of Chlamydomonas reinhardtii (CrPLC), wild type (Chlamydomonas reinhardtii); test: as above

Substance | percent of dimerization disrupted [1] | stoichiometry N [2]
CrPLC C7A mutant (enzyme) | 95% | 
recombinant phospholipase C of Chlamydomonas reinhardtii (CrPLC), wild type (enzyme) |  | 2
